Results: patent publication US7892775B2, “Fluorescence assay for kinase activity” (Massachusetts Institute of Technology, priority 2003, dated 2011)
Marks after values point to notes of the source that are not given here. Sox = metal binding amino acid

How the values were obtained:
[1] = target: T1, cAMP-dependent Protein Kinase (Catalytic Subunit) (Mus musculus, UniProt P05132); test: Continuous fluorescence kinase assay, kinetic constants of Sox peptide substrate with PKA; format: biochemical; conditions: 20 mM HEPES pH 7.4, 10 mM MgCl2, 1 mM ATP, 1 mM DTT, 40 units PKA, 30° C.; average of four Hanes plots
T1 construct: purchased Calbiochem
Protocol: A typical reaction contained solution 5 (90 μl), solution 6 (20 μl), solution 7 (1 μl) and an appropriate volume of substrate stock solution. Enzyme working stock (1 μl) was added to begin the reaction.
5 nm emission and excitation slit widths were used.
Substitution of (2) into (I) followed by rearrangement, yields: […]

Protein Kinase Cα = Protein Kinase Cα (Homo sapiens, UniProt P17252); conditions: 20 mM HEPES pH 7.4, 10 mM MgCl2, 0.3 mM CaCl2, 1 mM ATP, 0.7 nM PKCα, 30° C.; average of four Hanes plots
Protocol: PKC: On the day of the assay, a 1 μl aliquot of Protein Kinase Cα (Human, Recombinant, Calbiochem) was diluted with 20 μl of solution 4 and stored on ice. A typical reaction contained solution 4 (84 μl), solution 6 (19 μl), solution 8 (5 μl), solution 7 (1 μl), and enzyme working stock (1 μl). An appropriate volume of substrate stock solution was added to begin the reaction.
Fluorescence experiments were performed on a Fluoromax 3 from Jobin Yvon. 5 nm emission and excitation slit widths were used. For all experiments, an excitation wavelength of 360 nm was used. Enzyme assays were performed by monitoring emission at 485 nm.
To solve for Km and Vmax for this reaction, determination of the initial rate of product formation from the increase in fluorescence intensity is necessary. With this sensor, a correction for the decrease in fluorescence intensity due to the starting material being consumed is needed to determine the rate of product formation from the initial slope. The fluorescence intensity at any given point can be determined from the following equation: I(t)=fSS(t)+fPP(t) (1) where I(t) is the fluorescence intensity, S(t) is the amount of substrate in μM, P(t) is the amount of product in μM, fS is the fluorescence intensity per μM) of substrate, and fP is fluorescence intensity per μM of product. The amount of substrate and product at any given point are related by: S(t)+P(t)=S0 (2) where S0 is the initial amount of substrate. Substitution of (2) into (I) followed by rearrangement, yields:
The initial slope of the reaction, dI(t)/dt, was measured within the first 5% of substrate turnover. The constants fP and fS were calculated from the slope of a line of fluorescence intensity versus concentration of P and S, respectively. A linear fit of a Hanes plot ([…]) was used to find Km and Vmax.

Km [1]	Vmax [1]	Substance	Km (Protein Kinase Cα)	Vmax (Protein Kinase Cα)
1.8 ± 0.5 µM	3.7 ± 1.6^f μmol/min/mg	Ac-Leu-Arg-Arg-Ala-Ser-Leu-Pro-Sox-NH2 (Ac-LRRASLP-{Sox-NH2}) [Ac-LRRAS*LP-Sox-NH2, Sox-containing peptide substrate (sensor) for PKA]	–	–
–	–	Ac-Sox-Pro-Gly-Ser-Phe-Arg-Arg-Arg-NH2 [Ac-Sox-PGS*FRRR-NH2]	8.6 ± 2.9 µM	5.9 ± 1.9^d μmol/min/mg
–	–	Ac-Sox-Pro-Gly-Thr-Phe-Arg-Arg-Arg-NH2 ({Ac-Sox}-PGTFRRR-NH2) [Ac-Sox-PGT*FRRR-NH2]	23 ± 3 µM	2.3 ± 0.6^d μmol/min/mg
